# Measured values from patent US20250327113A1 (ESPERANCE PHARMACEUTICALS, published 2025).
# T1: human LHRH receptor (human, UniProt P30968 1-328)
# T1 sequence: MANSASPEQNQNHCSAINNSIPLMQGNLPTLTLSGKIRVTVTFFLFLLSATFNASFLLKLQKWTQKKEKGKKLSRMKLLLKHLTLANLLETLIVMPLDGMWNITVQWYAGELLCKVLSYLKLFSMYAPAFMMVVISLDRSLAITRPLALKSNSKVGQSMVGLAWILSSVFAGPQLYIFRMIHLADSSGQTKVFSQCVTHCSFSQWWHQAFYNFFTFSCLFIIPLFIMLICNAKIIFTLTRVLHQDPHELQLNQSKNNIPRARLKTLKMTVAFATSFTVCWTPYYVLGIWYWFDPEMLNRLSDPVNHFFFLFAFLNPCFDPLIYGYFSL
# Target: T1, human LHRH receptor
# Assay: cell-based or functional assay
binder,measurement,value
KFAKFAKKFAKFAKKFAKQHWSYGLRPG [EP-100 (KFAKFAKKFAKFAKKFAKQHWSYGLRPG)],"cytotoxicity IC50, MTT assay, 24 h, AN3-CA human endometrial cancer cells",3.3 µM
same,"cytotoxicity IC50, MTT assay, 24 h, LNCaP prostate cancer cells",1.5 µM
same,"cytotoxicity IC50, MTT assay, 24 h, MDA-MB-231 human breast cancer cells",5.5 µM
same,"cytotoxicity IC50, MTT assay, 24 h, MDA-MB-435S breast cancer cells",0.8 µM
same,"cytotoxicity IC50, MTT assay, 24 h, OVCAR-3 ovarian cancer cells",3 µM
same,"cytotoxicity IC50, MTT assay, 24 h, PC-3 prostate cancer cells",5.5 µM
